B1: 4133-6294 BYbe: anti-CD45 BYbe (Fab-scFv): 4133 Fab HC-G4S linker-6294 scFv heavy chain paired with 4133 light chain (antibody)
heavy: QEQLVESGGGLVQPEGSLTLTCTASGFSFSGNYYMCWVRQAPGKGLEWIGCLYTGSSGSTYYASWAKGRFTISKTSSTTVTLQMTSLTAADTATYFCARDLGYEIDGYGGLWGQGTLVTVSSGQPKAPSVFPLAPCCGDTPSSTVTLGCLVKGYLPEPVTVTWNSGTLTNGVRTFPSVRQSSGLYSLSSVVSVTSSSQPVTCNVAHPATNTKVDKTVAPSTCSKPGGGGSGGGGSEVQLVESGAELARPGASVKMSCKASGYTFTSYTMHWVKQRPGQCLEWIGYINPSSGYTEYNQKFKDKTTLTADKSSSTAYLQLSSLTSEDSAVYYCARVGDGFYPSWLAYWGQGTLVTVSSGGGGSGGGGSGGGGSGGGGSDIQMTQSPKFLLVSAGDRVTITCKASQSVRNDVAWYQQKPGQSPKLLIFYASKRYTGVPDRFTGSGYGTDFTFTISTVQAEDLAVYFCQQDYSSPTTFGCGTKLEIK
light: AQVLTQTPSPVSAVVGGTVSISCQASQSVYNNNNLSWYQQKPGQPPKLLIYDASKLASGVPSRFKGSGSGTQFTLTISGVQCDDAATYYCLGGYYSSGWYFAFGGGTKVVVKRTPVAPTVLIFPPAADQVATGTVTIVCVANKYFPDVTVTWEVDGTTQTTGIENSKTPQNSADCTYNLSSTLTLTSTQYNSHKEYTCKVTQGTTSVVQSFNRGDC

System: Jurkat
Test: Apoptosis of cell lines: Jurkat
Assay type: cell-based
Conditions: 21 hrs
From the text: The following cell lines representing various leukaemia's and lymphoma's, as classified by ATCC (www.atcc.org/), were used: Jurkat—acute T-cell leukaemia; CCRF-SB—B-cell acute lymphoblastic leukaemia; MC116—B-cell undifferentiated lymphoma; Raji, Ramos—Burkitt lymphoma (rare form of B-cell non-Hodgkin lymphoma); SU-DHL-4, SU-DHL-5, SU-DHL-8, NU-DUL-1, OCI-Ly3—Diffuse large B-cell lymphoma; THP-1—acute monocytic leukaemia; and Dakiki—B cell nasopharyngeal carcinoma.
Prior to an assay being performed, 1 vial of each of the above cell lines was thawed in a 37° C. water bath and then added to 20 ml complete media (RPMI 1640+2 mM GlutaMAX+1% Pen/Strep, all previous supplied by Invitrogen, +10% Fetal Bovine Serum (FBS), Sigma Aldrich). Cells were spun (500 g, 5 min, at RT) and re-suspended in 20 ml complete media to wash and spun again. Cells were resuspended in 10 ml complete media and then counted using a ChemoMetec NucleoCounter NC-3000. 6×10^6 cells of each cell line were spun (500 g, 5 min, at RT) and re-suspended in 4.8 ml complete media. 1×10^5 cells in 80 μl were then added to each well of a Corning Costar 96-well, cell culture treated, U-shaped-bottom microplate (cat no. 07-200-95). The plate was rested in a 37° C., 5% CO2 incubator for 2 hrs
Stocks of 4133-6294 BYbe and NegCtrl BYbe at 2500 nM in complete media were prepared. In a Greiner 96-well non-binding microplate, both reagents were serially diluted in complete media 1 in 5, seven times to produce to form an 8-point dose curve. […] (final well concentrations 500-0.0064 nM) was added to the cells. Each concentration was produced in triplicate. Camptothecin (cat no. C9911-100MG, Sigma Aldrich) and Staurosporine (cat no. 56942-200UL, Sigma Aldrich) were added as positive controls of apoptosis. Both were diluted in complete media and added to the well to produce a final concentration of 5 μM. Additional positive controls included anti-thymocyte globulin (ATG, indicated by FDA for use in conditioning regimens), Rituximab (anti-CD20, indicated by FDA for Non-Hodgkin Lymphoma and Chronic Lymphocytic Leukaemia) and Campath (anti-CD52, indicated by FDA for B-cell Chronic Lymphocytic Leukaemia). Anti-thymocyte globulin, Rituximab and Campath were added to the wells to produce final concentrations of 200 μg/ml, 500 nM and 200 μg/ml, respectively. […]
Following the incubation, the plates were spun at 500 g, 5 min, RT, the buffer was aspirated with a BioTek ELx405 microplate washer, and the cells were re-suspended in FACS buffer (PBS+1% bovine serum albumin (BSA)+0.1% NaN3+2 mM EDTA, Sigma Aldrich) to wash and then re-spun and buffer was aspirated to leave the cells in 20 μl residual media. […] Cells were analysed using the Bio-Rad ZE5 Cell Analyzer. […]

| Molecule | Campath mean (%) cell reduction (200 μg/ml) [%] | Bottom (%) level of % cell reduction [%] | Top (%) level of % cell reduction [%] |
| --- | --- | --- | --- |
| Campath: anti-CD52, clinical grade, indicated by FDA for B-cell Chronic Lymphocytic Leukaemia; positive control [reference compound] | 5.64 | – | – |
| B1 | – | 23.49 | 99.27 |

Reference: patent publication US20230374148A1, “BINDING MOLECULES THAT MULTIMERISE CD45” (UCB BIOPHARMA SRL, priority 2020, published 2023)
